{"source": "the DeepSol protein solubility set", "data": [{"test": "soluble on expression in E. coli; label from the status in PepcDB or PDB records", "values": [{"sequence": "MTRTNYQKKRMTCPVETEDITYRRKKIKGRRQAILAQFEPELVHHELIGDSCTCPDCHGTLTEIGSVVQRQELVFIPAQLKRINHVQHAYKCQTCSDNSLSDKIIKAPVPKAPLAHSLGSASIIAHTVHQKFTLKVPNYRQEEDWNKLGLSISRKEIANWHIKSSQYYFEPLYDLLRDILLSQEVIHADETSYRVLESDTQLTYYWTFLSGKHEKKGITLYHHDKRRSGLVTQEVLGDYSGYVHCDMHGAYRQLEHAKLVGCWAHVRRKFFEATPKQADKTSLGRKGLVYCDKLFALEAEWCELPPQERLVKRKEILTPLMTTFFDWCREQVVLSGSKLGLAIAYSLKHERTFRTVLEDGHIVLSNNMAERAIKSLVMGRKNWLFSQSFEGAKAAAIIMSLLETAKRHGLNSEKYISYLLDRLPNEETLAKREVLEAYLPWAKKVQTNCQ", "soluble on expression in E. coli": "not soluble"}, {"sequence": "MTSGSLQFTVLRAVNPATDAQRESMLREPGFGKYHTDHMVSIDYAEGRGWHNARVIPYGPIELDPSAIVLHYAQEVFEGLKAYRWADGSIVSFRADANAARLRSSARRLAIPELPDAVFIESLRQLIAVDKAWVPGAGGEEALYLRPFIFATEPGLGVRPATQYRYLLIASPAGAYFKGGIAPVSVWVSTEYVRACPGGTGAAKFGGNYAASLLAQAEAAENGCDQVVWLDAVERRYIEEMGGMNIFFVLGSGGSARLVTPELSGSLLPGITRDSLLQLAIDAGFAVEERRIDIDEWQKKAAAGEITEVFACGTAAVITPVARVRHGASEFRIADGQPGEVTMALRDTLTGIQRGTFADTHGWMARLG", "soluble on expression in E. coli": "soluble"}, {"sequence": "MTSIHSPVTRKEDTELKRPDLRGKFVCSSCSQNFQHSASLNRHRQLMHSNEHTCMMCERALNQKETIREHMRNEHNLAQVFTCGCCNWTFASKRQLTEHTKCIQGTGAPGDTIPIAKSINAPGSLIQSTIQGTPPVVKTGRKRPMGGSLSPSSSVSTSISSRDASGSPPPTEEEAERKVLFDNAVDTILQSKFFTYQQITEVDTWVKIIESANTLADTLQRIKKSQKVKAEGPAVESKMIPEKHVKQEIE", "soluble on expression in E. coli": "not soluble"}, {"sequence": "MTSITAIFFDLDGTLVDSSIGIHNAFTYTFKELGVPSPDAKTIRGFMGPPLESSFATCLSKDQISEAVQIYRSYYKAKGIYEAQLFPQIIDLLEELSSSYPLYITTTKDTSTAQDMAKNLEIHHFFDGIYGSSPEAPHKADVIHQALQTHQLAPEQAIIIGDTKFDMLGARETGIQKLAITWGFGEQADLLNYQPDYIAHKPLEVLAYFQ", "soluble on expression in E. coli": "soluble"}, {"sequence": "MTSKQSVSQCVKPPRPPAWIMQPPPDWQTPLNGIISPSERGLEHHHHHH", "soluble on expression in E. coli": "not soluble"}, {"sequence": "MTSRGITSLSNHLIPLSFPARLRIDQADKQAQAGLMKDHAQHTANIGKFQDSFVTADGQARASVPLSRPETLWFNTGTLCNIECANCYILSSPKNDALVYLSADEVSAYLDQIAARGWPVHEIGFTGGEPFMNPQIIAMSRTALERGFEVLILTNAMRPMMRKTMRLGVAALVRDFGDRLTLRVSVDHHSAACHDAERGAGSFARTLAGMVWLRDCGARMTVAGRTVWGESEAEARAGYAALYAEYGFAIDAFDPGQTVLFPEMDERVEVPEITTACWDILGKSPETVMCASSRMVVKRKGAAHPVVLACTLLPYAPEFELGQTLAEAERPVQLNHPHCAKFCVLGGASCSA", "soluble on expression in E. coli": "not soluble"}, {"sequence": "MTSSPARNGDISFWYADIGGVPQPRPPLAGDARADVCIVGAGYTGLWTALYLKEQAPELEVLVLEKEFAGFGASGRNGGWLTGSFAWTHDRYLSTGTAEGVRAMVTAMSGTVDEVIRVAEAEGIDADIHRTDELMVAVTPAQRARAEAEVRHRQSWGEERVSFLEADAVARRIRIPKAEGAMVVGGVARVQPAKLVRGLAEAAERRGVRIAEGTEVLGIAPGRVETRRGTVQAPIILRATEGFTATLPGAKRDWLPLNSAQIVTEPLPPEIWDRIGWEGAEILGDMANAYCYCQRTREGRIAVGARGRAYRMASRIDERGEADAVTVAHLLKRLQRHFPAAADARIDHSWCGVLGVPRDWCATVGLDPTTGIGWAGGYVGVGVSTSNLAGRTLADLALKRDTALTRLPWVNRRVRRWEPEPLRWLGVRGMYRLLEAADRREEAGGPPSWLAALGHRIAGRLEHHHHHH", "soluble on expression in E. coli": "not soluble"}, {"sequence": "MTSTTPLEPERWTPHATVATIVEKDGKFLLVEEKRLINSQGDFGIVYNQPAGHVDEGESIMAAAIRETLEETRWQVKLKHLVGIYIFTAPANNVTYHRYCFAAEATVHQAESQLDDGILDAKWLSWEEIQQLDNLRSPLVKRCIKDHIDGKHYPLDVIYEYADHEHTDDENKSQELEDRND", "soluble on expression in E. coli": "soluble"}, {"sequence": "MTSWADIQKLASDLQRVQLSQSSKKLSEVNCIEVLQKLIASHRIDVVYTRDGHSYVTKNHLETEIKNECIAAGGRASLTDIAVALNIDFDHIEKTSRLIVSTDDEFTISNAEIFATEYVHRLRNELRTLLDEQGNQTTAALCKHWNLSSELLQSLLIEKLGSSDFQGVVDGDTIYTSSFLNARQLVLRAILIALTKITPISTIQKRVGLTPKRFWIAFENLQSLGEIPGTLIGSRTSPSCSYRPMMYDHLVKSCVLNQYRQNEFLEISTLKTLGVDAKPALEEVLGSSEFKKLVSMRSMFMTKELMDQCINAVQEDLQKSGISDVHLALQSLNLPLDTADEDEIGSKVANVEKDSHFAEGFVFKGAVLTEALRSIDKLLDVRAHEEVDRLEAEKKKQGGAKAAVKVQEETDDWGDGKKGGKGGKKNAKSVKGGSKSSAPSTSSNLSANISINSEELEIWLRESQSVPEEILSVIVEKLNQETTTLLRKKVQDIQAHQLVASVANSKKSLSAIGDKCRQLYDSFNTFETATSTFADPLGSDLRQYLLKTVGNEIALALLSYVMGVDNAHQLKEKQREETIENLPEMLRDPIRSVFASLKSTDDDALDKFHDAVYNCSAPSATSLALKKVDKKGRAEVGAKITAELHEQLCSQTEPATTLLLSVLYILAKAGRPTTASGKFVSQLVAQIKDLCPENVFDLLQACQKGVVTCIKNKGDEVAKEMLVNDISSLKQSIMP", "soluble on expression in E. coli": "not soluble"}, {"sequence": "MTTAITPDKKKLVSPKPTKTTSDKSKTKPRRSSKTSKKRKSKKGLFGCCAKKRKTKRSKKSAKRTKRSAPKKAPKKAPMKAPSKPAAKLVPQQAQASLQKPIQSGIVDADATVKTVVPRPPTPIPPTGVKPEPAPRSEPLYQPRSVSSTTPRTSATTGTTEQMVTAPATLPPPSAESKHLPQDPPGDASSPRVQRQYTAEKYSKEDQDDDDQKDLRKSVAYPSHKFFMTQYVKDECRVRRWVYEDSVPLMMESNMKHMLRMASNRIAACQSDKARRCDMMKDLNEMTEILDGNF", "soluble on expression in E. coli": "not soluble"}, {"sequence": "MTTARWVIDKHLQNFHILCKFAGILKTNSFISVEDKAKLSEKLEKLDLYHRRNTGKSLDATTHKIKELSFYMFGYRDVCGQVTQKFLFSPLGNLFLKHLDNNEYIQKIFLTMLWAIPFPHPYIKTDESIQLYPMRLIFKLLSDERLDCKLFSYEYIYLISFVKSADQNSYEKLVQDILVLRTCAEVKIKHQLTAENSRSHAYVNAAHEWESYFSKTLTDAGVLQKTDGKIICRLKHGKTETYRKVTSSEFSIPKQLQEFVKKLQSAYSFSEMPLNLNDSDRLKIDVIKEIYSFYPKELLEEIGELKDEAAYELLHLPRLIEQYADNNNGTEAYLFEDVLEMGFNMFYNVEAKKIGGPGNTDLECLYITQKRKFAVEAKSTKNKLSGINSGRLEDHKNKIKAIYTIVVTPRYVPAVLSDIRNCPIVIIRANTFAEFLYNCLINRSSIPEIDYRYFDEIIIKNLGKDISSEISNLTMQQFASNTTMEAYST", "soluble on expression in E. coli": "not soluble"}, {"sequence": "MTTDLITVKQVTKTYGSKNKEIAALKDISLAIPKGTTLGIIGESGSGKTTLGKLIAGIESPTSGEIDYNGQVVHKLKAAHKRDFLQKVQFIFQDSTAALNPRWKVRDSVTEGYISFGLGDKGLKDKVAGDALERVGLDRRYINRYPHEFSGGQRQRIAIARALLCEPEVLILDEPISALDVSLQIQIVHLLQKIQREQGYTYLFIAHDLPMVHYLCEKVAVLYKGELVEFGNTDEVFRNPQHSYTKTLLASTPKISG", "soluble on expression in E. coli": "not soluble"}, {"sequence": "MTTFIQLHLLTAYPAANLNRDDTGAPKTVVLGGATRLRISSQSLKRAWRTSELFEQALAGHIGIRTGRIAREAAQILVDSGIDAKKAVEYVKNIANCFGKVKEDKKPKDELTNAETEQLVHISPAEFEAVKALARRLAEEKRPATEEEAELLRHDRMAVDIAMFGRMLAKKTDFNVEAACQVAHAFGVSETIIEDDFFTAVDDLRQASAEDAGAGHLGETGFGSALFYTYICIDKDLLVKNLNDNEELANKTLRAFTEAALKVSPTGKQNSFASRAYASWALAEKGTDQPRSLAAAFYEPINGTDQLNVAVKRITSLHKNMNKVYGQRTDTASFDVMNQQGSMEDVLDFICA", "soluble on expression in E. coli": "not soluble"}, {"sequence": "MTTFPILRLPEKSLKIAIRCLTMEQIIKFSLISESTKRTAESLNLQADPFWICFGESVHISVHANFVENYQQDIPWNPVEVDLRTLLDHFQSVLHTNKFEYFFV", "soluble on expression in E. coli": "not soluble"}, {"sequence": "MTTGVRRRMGVEERRQQLIGVALDLFSRRSPDEVSIDEIASAAGISRPLVYHYFPGKLSLYEAALQRASDDLADRFVEPRQGPLGARLLRVMGRYFDFVDEHGPGFSALMRGGPAVGSTTTNALVDSVRQAAYVQILSHLDVTEPPARLELVVRSWISLAESTALLWLDGRRIPRAELETQLVHDFAALMAVSAAYDEEMGALVRRVLADEPEDGPFGDLVDRLLALSAR", "soluble on expression in E. coli": "soluble"}, {"sequence": "MTTIKLIVNSVSKSERESIIAALHGQSIFNGGGLSPLNKISPSHPPKPATVAVPEETEKKARDVNEKTALLKKKSATELGELATSINTIARDAHMEANLEMEIVPQGLRVLIKDDQNRNMFERGSAQIMPFFKTLLVELAPVFDSLDNKIIITGHTDAMAYKNNIYNNWNLSGDRALSARRVLEEAGMPEDKVMQVSAMADQMLLDAKNPQSAGNRRIEIMVLTKSASDTLYQYFGQHGDKVVQPLVQKLDKQQVLSQRTR", "soluble on expression in E. coli": "not soluble"}, {"sequence": "MTTKHSRTPGRPRQFDPEQAIETAQHLFHSRGYDAVSVADLTKAFGINPPSFYAAFGSKLGLYTRVLKRYRMTDAIPLGALLRHDRPTAKCLIDVLMEAARRYAADPDATGCLVLEGAHCNDKPAREAACEFYIAAENLIRTYVAMRYPQEADRTTDFMGTLMAGLSAKARAGYGLERLQESVLLAGDVLERLLPD", "soluble on expression in E. coli": "not soluble"}, {"sequence": "MTTMTIKNAMVLAAGLGTRMRPITDTIPKPLVKIAGKPMIDYALDALVEAGAETIVVNVHHHAEQMISHLGHRTDAEILISDERTQLMNSGGGLAKGLKLLKPGPVFVMNADLFWIGERLNAVSNLRKLAQFLDPARMDMALLCVDMDRTTGHNGKRDFNLAGEGKLTRYRDGDANPVVYAGAIAMDSRLLDDAPADAFNLNIYFDRAIEKDRLFGLSLDGHWITVGTPDAIDDAESIIRQFREKRFALEHHHHHH", "soluble on expression in E. coli": "not soluble"}, {"sequence": "MTTNKPLISVIMPVYNGGFTIRQAVESVFCQNIPLELLVIDDGSTDQTSEVLSVYRNRPDFHYLKNPHNIGAAASRNRGVQEAHGQYVAFLDADDWWENGKLQIQLDTLHETGRVLCSTGRELMNYDGTPTGKYIPVKETVSYRDLLKHNSINCSSVLLLRDVAAEFPMEHDDSHEDYLTWLKILRKYGPAAGIDRPLLKYRMSKTSKSGDKKKSAIMTYKVYRYMGYSHMRCILYFISYAIHGFWKYR", "soluble on expression in E. coli": "not soluble"}, {"sequence": "MTTPKTFVPELLSPAGSLKNMRYAFAYGADAVYAGQPRYSLRVRNNEFNHENLQIGINEAHALGKKFYVVCNIQPHNSKLKTFIRDLKPVIDMGPDALIMSDPGLIMMVREEFPHMPIHLSVQANAVNWATVKFWASQGVERVIVSRELSLEEIEEIREKCPNTEIEVFVHGALCMAYSGRCLLSGYINKRDPNQGTCTNACRWEYKVEAAKEDEAGQIVEQFDPNAAQAIEVQNERPDTTIGAGKPIDDVVLLSESHRPDEKMAAFEDEHGTYIMNSKDLRAVQHVERLTQMGVHSLKIEGRTKSFYYCARTAQVYRKAIDDAVAGKPFDDSLMTTLESLAHRGYTEGFLRRHTHDAYQNYDYGYSVSDTQQFVGEFTGKRRGAMAEVEVKNKFVLGDSLELMTPKGNVIFTLEAMENRKGEATDDAKGNGHFVYIPVPEELDLSYALLMRNLVQGQDTRNPTGK", "soluble on expression in E. coli": "not soluble"}]}]}
